Assay results published in patent US20140274782A1, “AFFINITY REAGENTS AND METHODS FOR DETECTION, PURIFICATION, AND PROTEOMIC ANALYSIS OF METHYLATED PROTEINS” (The Board of Trustees of the Leland Stanford Junior …, priority 2013, published 2014).

T1: G9a and GLP (Homo sapiens, UniProt Q96KQ7+Q9H9B1)
T1 sequence (Q96KQ7 2-1210 limits assumed): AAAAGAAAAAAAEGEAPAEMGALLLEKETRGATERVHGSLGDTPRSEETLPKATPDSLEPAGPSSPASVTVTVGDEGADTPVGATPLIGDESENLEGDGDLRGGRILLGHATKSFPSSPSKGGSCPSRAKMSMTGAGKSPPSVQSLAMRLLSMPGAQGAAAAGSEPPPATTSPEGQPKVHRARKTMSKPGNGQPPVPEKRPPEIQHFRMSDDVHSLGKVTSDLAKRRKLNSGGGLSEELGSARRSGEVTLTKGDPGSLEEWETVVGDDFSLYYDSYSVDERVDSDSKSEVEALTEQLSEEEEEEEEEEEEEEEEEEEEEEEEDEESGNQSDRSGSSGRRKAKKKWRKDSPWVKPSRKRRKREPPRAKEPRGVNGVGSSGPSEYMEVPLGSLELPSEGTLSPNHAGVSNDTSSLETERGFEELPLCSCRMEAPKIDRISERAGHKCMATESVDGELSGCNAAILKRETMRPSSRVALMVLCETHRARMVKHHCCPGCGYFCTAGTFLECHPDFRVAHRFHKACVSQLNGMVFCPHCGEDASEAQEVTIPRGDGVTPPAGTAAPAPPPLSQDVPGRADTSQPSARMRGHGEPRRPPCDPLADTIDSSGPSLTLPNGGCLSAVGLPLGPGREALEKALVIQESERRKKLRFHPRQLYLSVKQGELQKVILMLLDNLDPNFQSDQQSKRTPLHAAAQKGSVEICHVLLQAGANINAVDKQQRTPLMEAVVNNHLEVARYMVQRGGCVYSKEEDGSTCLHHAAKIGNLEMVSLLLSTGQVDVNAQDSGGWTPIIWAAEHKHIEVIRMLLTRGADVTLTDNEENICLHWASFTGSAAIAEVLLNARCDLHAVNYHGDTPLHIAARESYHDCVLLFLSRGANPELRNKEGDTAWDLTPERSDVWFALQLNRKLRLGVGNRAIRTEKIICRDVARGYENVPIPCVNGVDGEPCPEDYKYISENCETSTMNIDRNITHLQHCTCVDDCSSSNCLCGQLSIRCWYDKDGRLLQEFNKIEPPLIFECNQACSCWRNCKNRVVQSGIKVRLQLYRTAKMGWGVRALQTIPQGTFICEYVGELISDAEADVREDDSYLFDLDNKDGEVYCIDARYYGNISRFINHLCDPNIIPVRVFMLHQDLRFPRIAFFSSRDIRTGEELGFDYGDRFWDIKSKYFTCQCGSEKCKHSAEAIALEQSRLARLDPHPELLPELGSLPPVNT
T1 sequence (Q9H9B1 2-1298 limits assumed): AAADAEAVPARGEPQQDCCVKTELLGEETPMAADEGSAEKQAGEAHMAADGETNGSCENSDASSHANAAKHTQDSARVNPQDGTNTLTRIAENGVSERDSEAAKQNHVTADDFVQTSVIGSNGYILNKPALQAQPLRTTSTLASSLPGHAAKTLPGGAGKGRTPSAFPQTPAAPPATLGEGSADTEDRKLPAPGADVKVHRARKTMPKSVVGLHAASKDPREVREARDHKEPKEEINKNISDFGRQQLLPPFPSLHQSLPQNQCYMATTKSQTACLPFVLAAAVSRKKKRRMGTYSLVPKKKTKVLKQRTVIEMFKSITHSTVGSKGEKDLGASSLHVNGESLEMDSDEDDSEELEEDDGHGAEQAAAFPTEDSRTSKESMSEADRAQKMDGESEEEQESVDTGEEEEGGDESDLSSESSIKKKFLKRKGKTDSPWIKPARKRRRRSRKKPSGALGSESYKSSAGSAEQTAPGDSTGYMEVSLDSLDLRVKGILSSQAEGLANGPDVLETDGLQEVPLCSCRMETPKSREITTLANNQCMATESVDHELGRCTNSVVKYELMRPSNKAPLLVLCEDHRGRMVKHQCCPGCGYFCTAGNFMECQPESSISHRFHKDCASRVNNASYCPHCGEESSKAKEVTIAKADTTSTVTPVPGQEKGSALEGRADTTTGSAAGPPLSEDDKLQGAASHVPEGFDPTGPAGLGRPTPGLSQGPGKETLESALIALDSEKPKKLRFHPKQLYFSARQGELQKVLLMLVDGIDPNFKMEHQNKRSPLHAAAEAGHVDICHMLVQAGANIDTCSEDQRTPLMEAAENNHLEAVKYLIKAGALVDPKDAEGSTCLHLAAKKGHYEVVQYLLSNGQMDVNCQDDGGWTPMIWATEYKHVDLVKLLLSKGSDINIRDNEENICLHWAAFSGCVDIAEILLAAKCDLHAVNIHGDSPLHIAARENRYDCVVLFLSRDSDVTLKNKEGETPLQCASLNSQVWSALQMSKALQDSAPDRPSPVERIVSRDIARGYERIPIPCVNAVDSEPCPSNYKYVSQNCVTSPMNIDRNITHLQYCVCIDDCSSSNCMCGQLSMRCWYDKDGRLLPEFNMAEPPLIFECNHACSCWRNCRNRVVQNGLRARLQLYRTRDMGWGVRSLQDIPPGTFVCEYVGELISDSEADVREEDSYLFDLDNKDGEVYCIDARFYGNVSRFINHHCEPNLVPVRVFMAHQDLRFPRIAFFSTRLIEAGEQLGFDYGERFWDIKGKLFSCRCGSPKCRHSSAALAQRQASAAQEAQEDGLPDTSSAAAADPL

B1: LRWD1 (protein, UniProt Q9UFC0 1-647, looked up)
Leucine-rich repeat and WD …: MGPLSARLLMQRGRPKSDRLGKIRSLDLSGLELLSEHLDPKLLCRLTQLQELDLSNNHLETLPDNLGLSHLRVLRCANNQLGDVTALCQFPKLEELSLEGNPFLTVNDNLKVSFLLPTLRKVNGKDASSTYSQVENLNRELTSRVTAHWEKFMATLGPEEEAEKAQADFVKSAVRDVRYGPESLSEFTQWRVRMISEELVAASRTQVQKANSPEKPPEAGAAHKPRARLAALKRPDDVPLSLSPSKRACASPSAQVEGSPVAGSDGSQPAVKLEPLHFLQCHSKNNSPQDLETQLWACAFEPAWEEGATSQTVATCGGEAVCVIDCQTGIVLHKYKAPGEEFFSVAWTALMVVTQAGHKKRWSVLAAAGLRGLVRLLHVRAGFCCGVIRAHKKAIATLCFSPAHETHLFTASYDKRIILWDIGVPNQDYEFQASQLLTLDTTSIPLRLCPVASCPDARLLAGCEGGCCCWDVRLDQPQKRRVCEVEFVFSEGSEASGRRVDGLAFVNEDIVASKGSGLGTICLWSWRQTWGGRGSQSTVAVVVLARLQWSSTELAYFSLSACPDKGIVLCGDEEGNVWLYDVSNILKQPPLLPAALQAPTQILKWPQPWALGQVVTKTMVNTVVANASFTYLTALTDSNIVAIWGRM
B2: CAPRIN1 (protein, UniProt Q14444 2-709, looked up)
Caprin-1: PSATSHSGSGSKSSGPPPPSGSSGSEAAAGAGAAAPASQHPATGTGAVQTEAMKQILGVIDKKLRNLEKKKGKLDDYQERMNKGERLNQDQLDAVSKYQEVTNNLEFAKELQRSFMALSQDIQKTIKKTARREQLMREEAEQKRLKTVLELQYVLDKLGDDEVRTDLKQGLNGVPILSEEELSLLDEFYKLVDPERDMSLRLNEQYEHASIHLWDLLEGKEKPVCGTTYKVLKEIVERVFQSNYFDSTHNHQNGLCEEEEAASAPAVEDQVPEAEPEPAEEYTEQSEVESTEYVNRQFMAETQFTSGEKEQVDEWTVETVEVVNSLQQQPQAASPSVPEPHSLTPVAQADPLVRRQRVQDLMAQMQGPYNFIQDSMLDFENQTLDPAIVSAQPMNPTQNMDMPQLVCPPVHSESRLAQPNQVPVQPEATQVPLVSSTSEGYTASQPLYQPSHATEQRPQKEPIDQIQATISLNTDQTTASSSLPAASQPQVFQAGTSKPLHSSGINVNAAPFQSMQTVFNMNAPVPPVNEPETLKQQNQYQASYNQSFSSQPHQVEQTELQQEQLQTVVGTYHGSPDQSHQVTGNHQQPPQQNTGFPRSNQPYYNSRGVSRGGSRGARGLMNGYRGPANGFRGGYDGYRPSFSNTPNSGYTQSQFSAPRDYSGYQRDGYQQNFKRGSGQSGPRGAPRGRGGPPRPNRGMPQMNTQQVN

Experiments:
3×MBT domain of L3MBTL1 = experiment: Triple SILAC pull-down, 3xMBT/3xMBTD355N ratio (cytoplasmic, nuclear and chromatin fractions of 293T cells); format: binding, human; details: SILAC ratio, pull-down 3xMBT vs 3xMBTD355N; for 3xMBT/D355N UNC Heavy: experiment with UNC0638 in heavy SILAC media; for 3xMBT/D355N UNC Light: experiment with UNC0638 in light SILAC media;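 as to all read-outs here: proteins quantified with MaxQuant, requiring at least two unique peptides and quantification in both label directions, normalized to the mean of proteins from a digested loading control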
G9a and GLP = target: T1, G9a and GLP; experiment: Triple SILAC pull-down after UNC0638 treatment of 293T cells, DMSO/UNC0638 ratio of protein captured by 3×MBT; format: cell-based; design: endogenous in cells; host or cells: HEK 293T; details: for Relative to UNC0638 UNC Heavy / Relative to UNC0638 UNC Light: SILAC ratio DMSO/UNC0638 of protein pulled down with 3xMBT; for Relative to UNC0638 UNC Heavy: UNC0638 in heavy SILAC media; for Relative to UNC0638 UNC Light: UNC0638 in light SILAC media; for Relative to UNC0638 Average: average of UNC Light and UNC Heavy experiments;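 as to all read-outs here: mass spectrometry (Q-Exactive) SILAC quantitation, DMSO/UNC0638 ratio computed after subtracting 3×MBTD355N mutant pull-down background, only proteins with at least twofold 3×MBT over mutant signal considered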

| Molecule | 3xMBT/D355N UNC Heavy (3×MBT domain of L3MBTL1) [log base 2] | 3xMBT/D355N UNC Light (3×MBT domain of L3MBTL1) [log base 2] | Relative to UNC0638 UNC Heavy (G9a and GLP) [log base 2] | Relative to UNC0638 UNC Light (G9a and GLP) [log base 2] | Relative to UNC0638 Average (G9a and GLP) [log base 2] |
| --- | --- | --- | --- | --- | --- |
| B1 | 2.59 | 2.64 | 0.01 | 0.25 | 0.13 |
| B2 | 2.45 | 4.36 | −1.08 | 1.34 | 0.13 |
